Assay results from patent US20260266848A1, “COMPOSITIONS AND METHODS FOR DIAGNOSING AND TREATING DYSTONIA” (Duke University, priority 2023, published 2026).

B1: Copg2 (protein, UniProt Q9QXK3 1-871, looked up)
Coatomer subunit gamma-2: MIKKFDKKDEESGSGSNPFQHLEKSAVLQEARIFNETPINPRRCLHILTKILYLLNQGEHFGTMEATEAFFAMTRLFQSNDQTLRRMCYLTIKEMATISEDVIIVTSSLTKDMTGKEDVYRGPAIRALCRITDGTMLQAVERYMKQAIVDKVSSVASSALVSSLHMMKISYDVVKRWINEAQEAASSDNIMVQYHALGVLYHLRKNDRLAVSKMLNKFTKSGLKSQFAYCMLIRIASRLLKESEDGHESPLFDFIESCLRNKHEMVIYEAASAIIHLPNCTARELAPAVSVLQLFCSSPKPALRYAAVRTLNKVAMKHPSAVTACNLDLENLITDSNRSIATLAITTLLKTGSESSVDRLMKQISSFVSEISDEFKVVVVQAISALCHKYPRKHSVMMTFLSNMLRDDGGFEYKKAIVDCIISIVEENPESKEAGLAHLCEFIEDCEHTVLATKILHLLGKEGPRTPVPSKYIRFIFNRVVLENEAVRAAAVSALAKFGAQNESLLPSILVLLQRCMMDTDDEVRDRATFYLNVLQQRQMALNATYIFNGLTVSIPGMEKALHQYTLEPSEKPFDMKSIPLAMAPVFEQKSEITLVTPKPEKLAPSRQDIFQEQLAAIPEFMNLGPLFKSSEPVQLTEAETEYFVRCVKHMFTDHIVFQFDCTNTLNDQLLEKVTVQMEPSDSYEVLCCIPAPSLPYNQPGICYTLVRLPDEDPTAVAGTFSCTMKFTVRDCDPNTGVPDEDGYDDEYVLEDLEVTVSDHIQKILKPNFAAAWEEVGDAFEKEETFALSSTKTLEEAVNNIITFLGMQPCERSDKVPENKNSHSLYLAGVYRGGYDLLVRSRLALADGVTMQVTVRSKERTPVDVILASVG
B2: Picalm (protein, UniProt Q7M6Y3 2-660, looked up)
Phosphatidylinositol-binding …: SGQSLTDRITAAQHSVTGSAVSKTVCKATTHEIMGPKKKHLDYLIQCTNEMNVNIPQLADSLFERTTNSSWVVVFKSLITTHHLMVYGNERFIQYLASRNTLFNLSNFLDKSGLQGYDMSTFIRRYSRYLNEKAVSYRQVAFDFTKVKRGADGVMRTMNTEKLLKTVPIIQNQMDALLDFNVNSNELTNGVINAAFMLLFKDAIRLFAAYNEGIINLLEKYFDMKKNQCKEGLDIYKKFLTRMTRISEFLKVAEQVGIDRGDIPDLSQAPSSLLDALEQHLASLEGKKIKDSTAASRATTLSNAVSSLASTGLSLTKVDEREKQAALEEEQARLKALKEQRLKELAKKPHTSLTTAASPVSTSAGGIMTAPAIDIFSTPSSSNSTSKLPNDLLDLQQPTFHPSVHAMSAAPQGASTWGDPFSATLDAVEDAIPSLNPFLTKSSGDVHLPIASDVSTFTTRTPTHEMFVGFSPSPVAQPHSSAGLNVDFESVFGNKSTNVAVDSGGFDELGGLLKPTVASQNQSLPVAKLPPNKLVSDDLDSSLANLVGNLGIGNGTTKNDVSWSQPGEKKLTGGSNWQPKVAPTTAWSAATMNGMHFPQYAPPVMAYPATTPTGMIGYGIPPQMGSVPVMTQPTLIYSQPVMRPPNPFGPVSGAQIQFM
B3: Megf10 (protein, UniProt Q6DIB5 26-1147, looked up)
Multiple epidermal growth …: LNLEDPNVCSHWESYSVTVQESYPHPFDQIYYTSCTDILNWFKCTRHRISYRTAYRHGEKTMYRRKSQCCPGFYESRDMCVPHCADKCVHGRCIAPNTCQCEPGWGGTNCSSACDGDHWGPHCSSRCQCKNRALCNPITGACHCAAGYRGWRCEDRCEQGTYGNDCHQRCQCQNGATCDHITGECRCSPGYTGAFCEDLCPPGKHGPHCEQRCPCQNGGVCHHVTGECSCPSGWMGTVCGQPCPEGRFGKNCSQECQCHNGGTCDAATGQCHCSPGYTGERCQDECPVGSYGVRCAEACRCVNGGKCYHVSGTCLCEAGFSGELCEARLCPEGLYGIKCDKRCPCHLDNTHSCHPMSGECGCKPGWSGLYCNETCSPGFYGEACQQICSCQNGADCDSVTGRCACAPGFKGTDCSTPCPLGRYGINCSSRCGCKNDAVCSPVDGSCICKAGWHGVDCSIRCPSGTWGFGCNLTCQCLNGGACNTLDGTCTCAPGWRGAKCEFPCQDGTYGLNCAERCDCSHADGCHPTTGHCRCLPGWSGVHCDSVCAEGRWGPNCSLPCYCKNGASCSPDDGICECAPGFRGTTCQRICSPGFYGHRCSQTCPQCVHSSGPCHHITGLCDCLPGFTGALCNEVCPSGRFGKNCAGVCTCTNNGTCNPIDRSCQCYPGWIGSDCSQPCPPAHWGPNCIHTCNCHNGAFCSAYDGECKCTPGWTGLYCTQRCPLGFYGKDCALICQCQNGADCDHISGQCTCRTGFMGRHCEQKCPAGTYGYGCRQICDCLNNSTCDHITGTCYCSPGWKGARCDQAGVIIVGNLNSLSRTSTALPADSYQIGAIAGIVVLVLVVLFLLALFIIYRHKQKRKESSMPAVTYTPAMRVINADYTIAETLPHSNGGNANSHYFTNPSYHTLSQCATSPHVNNRDRMTIAKSKNNQLFVNLKNVNPGKRGTLVDCTGTLPADWKQGGYLNELGAFGLDRSYMGKSLKDLGKNSEYNSSTCSLSSSENPYATIKDPPALLPKSSECGYVEMKSPARRDSPYAEINNSTPANRNVYEVEPTVSVVQGVFSNSGHVTQDPYDLPKNSHIPCHYDLLPVRDSSSSPKREDGGGSNSTSSNSTSSSSSSSE
B4: Wars (protein, UniProt P32921 1-481, looked up)
Tryptophan--tRNA ligase, …: MADMPSGESCTSPLELFNSIATQGELVRSLKAGNAPKDEIDSAVKMLLSLKMSYKAAMGEEYKAGCPPGNPTAGRNCDSDATKASEDFVDPWTVRTSSAKGIDYDKLIVQFGSSKIDKELINRIERATGQRPHRFLRRGIFFSHRDMNQILDAYENKKPFYLYTGRGPSSEAMHLGHLVPFIFTKWLQDVFNVPLVIQMSDDEKYLWKDLTLEQAYSYTVENAKDIIACGFDINKTFIFSDLEYMGQSPGFYRNVVKIQKHVTFNQVKGIFGFTDSDCIGKISFPAVQAAPSFSNSFPKIFRDRTDIQCLIPCAIDQDPYFRMTRDVAPRIGHPKPALLHSTFFPALQGAQTKMSASDPNSSIFLTDTAKQIKSKVNKHAFSGGRDTVEEHRQFGGNCEVDVSFMYLTFFLEDDDRLEQIRKDYTSGAMLTGELKKTLIDVLQPLIAEHQARRKAVTEETVKEFMTPRQLSFHFQCFCFDT
B5: Vps26b (protein, UniProt Q8C0E2 1-336, looked up)
Vacuolar protein …: MSFFGFGQSVEVEILLNDAESRKRAEHKTEDGKKEKYFLFYDGETVSGKVSLSLKNPNKRLEHQGIKIEFIGQIELYYDRGNHHEFVSLVKDLARPGEITQSQAFDFEFTHVEKPYESYTGQNVKLRYFLRATISRRLNDVVKEMDIVVHTLSTYPELNSSIKMEVGIEDCLHIEFEYNKSKYHLKDVIVGKIYFLLVRIKIKHMEIDIIKRETTGTGPNVYHENDTIAKYEIMDGAPVRGESIPIRLFLAGYELTPTMRDINKKFSVRYYLNLVLIDEEERRYFKQQEVVLWRKGDIVRKSMSHQAAIASQRFEGTTSLGEVRTPGQLSDNNSRQ
B6: Ankfy1 (protein, UniProt Q810B6 2-1169, looked up)
Rabankyrin-5: AEEEVAKLEKHLMLLRQEYVKLQKKLAETEKRCTLLAAQANKENSNESFISRLLAIVAGLYEQEQYSDLKIKVGDRHISAHKFVLAARSDSWSLANLSSTEEIDLSDANPEVTMTMLRWIYTDELEFREDDVFLTELMKLANRFQLQLLRERCEKGVMSLVNVRNCIRFYQTAEELNASTLMNYCAEIIASHWDDLRKEDFSSLSAQLLYKMIKSKTEYPLHKAIKVEREDVVFLYLIEMDSQLPGKLNETDHNGDLALDLALSRRLESIATTLVSHKADVDMVDKNGWSLLHKGIQRGDLFASTFLIKNGALVNAATAGAQETPLHLVALYSPKKYSADVMSEMAQIAEALLQAGANPNMQDSKGRTPLHLSIMARNDCVFSQLLQCKQLDLELKDHEGSTALWLAVQYITVSSDQSVNPFEDLPVVNGTSFDENSFAARLIQRGSNTDAPDVMTGNCLLQRAAGAGNEAAALFLATSGAHANHRNKWGETPLHTACRHGLANLTAELLQQGANPNLQTEEALPVPKESPVLMSSADSIYLQTPLHMAIAYNHPDVVSVILEQKANALHATNNLQIIPDFSLKDSRDQTVLGLALWTGMHTIAAQLLGSGASINDTMSDGQTLLHMAIQRQDSKSALFLLEHQADINVRTQDGETALQLAIKHQLPLVVDAICTRGADMSVPDEKGNPPLWLALASNLEDIASTLVRHGCDATCWGPGPSGCLQTLLHRAVDENNESTACFLIRSGCDVNSPRQPGTNGEGEEEARDGQTPLHLAASWGLEETVQCLLEFGANVNAQDAEGRTPVHVAISNQHSVIIQLLISHPNIELSVRDRQGLTPFACAMTYKNNKAAEAILKRESGAAEQVDNKGRNFLHVAVQNSDIESVLFLISVQANVNSRVQDASKLTPLHLAVQAGSEIIVRNLLLAGAKVNELTKHRQTALHLAAQQDLPTICSVLLENGVDFAAVDENGNNALHLAVMHGRLNNIRALLTECTVDAEAFNLRGQSPLHILGQYGKENAAAIFDLFLECMPEYPLDKPDAEGNTVLLLAYMKGNANLCRAIVRSGVRLGVNNNQGVNIFNYQVATKQLLFRLLDMLSKEPPWCDGSNCYECTAKFGVTTRKHHCRHCGRLLCHKCSTKEIPIIKFDLNKPVRVCNICFDVLTLGGVS

Columns and labels:
[1] = tested on: DYT-TOR1A MEF EVs; assay: Quantitative LC-MS/MS proteomics of EVs from drug-treated DYT-TOR1A MEF cultures (ritonavir, salubrinal); type: cell-based, mouse; set-up: key to RTV Corrective Direction / RTV Corrective Direction, Grwd1 / RTV Corrective Direction, Srrm2 / RTV Corrective Direction, Rbm17 / RTV Corrective Direction, Dcaf8 / RTV Corrective Direction, Edil3 / RTV Corrective Direction, Timp3 / RTV Corrective Direction, Heatr3 / RTV Corrective Direction, Brd4 / RTV Corrective Direction, P3h4 / RTV Corrective Direction, Pacsin3 / RTV Corrective Direction, Naa50 / RTV Corrective Direction, Lpar6 / RTV Corrective Direction, Ndrg1 / RTV Corrective Direction, Kntc1 / RTV Corrective Direction, Cdk11b / RTV Corrective Direction, Sumo1 / RTV Corrective Direction, Lsm4 / RTV Corrective Direction, Hmga2 / RTV Corrective Direction, Cstf1 / RTV Corrective Direction, Tes / RTV Corrective Direction, Sbno1 / RTV Corrective Direction, Unc119b / RTV Corrective Direction, Cfdp1 / RTV Corrective Direction, Sec61b: YES = protein abundance effect opposite to DYT/WT; settings: EV protein abundance; for RTV Corrective Direction: DYT + RTV (ritonavir) vs DYT, direction compared with DYT/WT; for DYT + RTV/DYT Cohen's d: ritonavir (RTV)-treated DYT vs DYT
[2] = tested on: WT MEF EVs; assay: Quantitative LC-MS/MS proteomics of EVs from ISRIB-treated WT MEF cultures; type: cell-based, mouse; set-up: key to ISRIB and DYT Parallel Direction / ISRIB and DYT Parallel Direction, Ctdsp1 / ISRIB and DYT Parallel Direction, Pcdh19 / ISRIB and DYT Parallel Direction, Tspan7 / ISRIB and DYT Parallel Direction, Myo1e / ISRIB and DYT Parallel Direction, Plpp3 / ISRIB and DYT Parallel Direction, Sh3bp4 / ISRIB and DYT Parallel Direction, Dnajc7 / ISRIB and DYT Parallel Direction, Drg1 / ISRIB and DYT Parallel Direction, Maea: YES = protein abundance effect similar to DYT/WT; settings: EV protein abundance; for WT + ISRIB/WT Cohen's d: ISRIB-treated WT vs WT; for ISRIB and DYT Parallel Direction: WT + ISRIB vs WT, direction compared with DYT/WT

Molecule	RTV Corrective Direction [1]	DYT + RTV/DYT Cohen's d [1]	WT + ISRIB/WT Cohen's d [2]	ISRIB and DYT Parallel Direction [2]
B1	YES	3.05	−0.44	YES
B2	YES	2.85	−1.01	YES
B3	YES	−2.80	1.37	YES
B4	YES	4.38	−1.03	YES
B5	YES	3.01	−1.43	YES
B6	YES	2.86	−1.45	YES
